Measurements reported in PMC9122904, “Insights into the client protein release mechanism of the ATP-independent chaperone Spy” (Nature Communications, 2022).

B6: Spy_(29-138) (domain or fragment, UniProt P77754 52-161, looked up)
chain: FKDLNLTDAQKQQIREIMKGQRDQMKRPPLEERRAMHDIIASDTFDKVKAEAQIAKMEEQRKANMLAHMETQNKIYNILTPEQKKQFNANFEKRLTERPAAKGKMPATAE
notes: source: E. coli BL21 (DE3), purified (Ni-NTA, cation exchange, SEC); not shown: His6, N-terminal, cleaved; SUMO, N-terminal, cleaved
B7: carboxymethylated α-lactalbumin (natural protein, bovine, UniProt P00711 20-142, looked up)
chain: EQLTKCEVFRELKDLKGYGGVSLPEWVCTTFHTSGYDTQAIVQNNDSTEYGLFQINNKIWCKDDQNPHSSNICNISCDKFLDDDLTDDIMCVKKILDKVGINYWLAHKALCSEKLDQWLCEKL
modifications: carboxymethylated (residues not stated); biotin (EZ-link NHS-biotin, 1:1 molar ratio of biotin to protein)
notes: α-lactalbumin, carboxymethylated and thereby unfolded; also called unfolded α-LA

How the values were obtained:
Details in all cases: both partners purified
Im7 H40W L53A I54A = target: T1, Im7 H40W L53A I54A (UniProt Q03708 1-87, H40W | L53A | I54A, biotin (EZ-link NHS-biotin, 1:1 molar ratio of biotin to protein)); test: BLI; Octet RED96; biotinylated client loaded on streptavidin sensors; Spy or Spy variants at 0.25, 0.5, 1, 1.5 and 2 μM in 40 mM HEPES, 150 mM NaCl, pH 7.5; Kd = koff/kon
T1 construct: Im7 (colicin E7 immunity protein), partially folded mutant; also called Im7AAW; source: purified by a similar procedure to Spy
T1 sequence: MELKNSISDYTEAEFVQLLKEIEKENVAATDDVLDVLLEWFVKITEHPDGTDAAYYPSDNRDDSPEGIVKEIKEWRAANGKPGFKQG

Spy wild type = target: T2, Spy wild type (Escherichia coli K-12 substr. MG1655, UniProt P77754 24-161); test: BLI; Octet RED96; biotinylated client loaded on streptavidin sensors, dipped into Spy or Spy variants (0.25, 0.5, 1, 1.5, 2 uM) in 40 mM HEPES, 150 mM NaCl, pH 7.5; kon from kobs against [Spy], Kd = koff/kon
T2 construct: also called WT; source: E. coli BL21 (DE3), purified (Ni-NTA, cation exchange, SEC); not shown: His6, N-terminal, cleaved; SUMO, N-terminal, cleaved
T2 sequence (looked up): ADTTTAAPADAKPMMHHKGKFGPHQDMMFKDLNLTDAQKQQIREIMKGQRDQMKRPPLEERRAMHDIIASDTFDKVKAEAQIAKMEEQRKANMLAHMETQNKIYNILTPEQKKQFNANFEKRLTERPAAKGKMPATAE

Spy (GGGS)2 = target: T3, Spy (GGGS)2 (Escherichia coli K-12 substr. MG1655, UniProt P77754 24-161, (GGGS)2 linker inserted between D26 and M27); test: as above
T3 construct: also called Spy variant with a (GGGS)2 linker inserted between D26 and M27; source: E. coli BL21 (DE3), purified (Ni-NTA, cation exchange, SEC); not shown: His6, N-terminal, cleaved; SUMO, N-terminal, cleaved
T3 sequence (looked up): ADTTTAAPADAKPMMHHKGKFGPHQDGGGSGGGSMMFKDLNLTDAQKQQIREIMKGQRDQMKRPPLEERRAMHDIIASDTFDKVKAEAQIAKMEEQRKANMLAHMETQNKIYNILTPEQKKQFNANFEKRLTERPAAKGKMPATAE

Spy_(29-138) [1] = target: B6; test: BLI; Octet RED96; client biotinylated and loaded on streptavidin sensors; Spy or Spy variant in solution at 0.25, 0.5, 1, 1.5 and 2 μM; 40 mM HEPES, 150 mM NaCl, pH 7.5; Kd calculated as koff/kon
[2] = target: T4, Spy wild type (Spy_(1-138)) (UniProt P77754 24-161); test: as above
T4 construct: Spy, ATP-independent periplasmic chaperone; also called WT; wt; source: E. coli BL21 (DE3), purified (Ni-NTA, cation exchange, SEC); not shown: His6, N-terminal, cleaved; SUMO, N-terminal, cleaved
T4 sequence (looked up): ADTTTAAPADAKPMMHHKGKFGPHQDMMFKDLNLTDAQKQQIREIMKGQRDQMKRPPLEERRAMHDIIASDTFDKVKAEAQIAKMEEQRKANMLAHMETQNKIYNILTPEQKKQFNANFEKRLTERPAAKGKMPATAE

Spy_(29-138) [3] = target: B6; test: as above; remark: listed apart in the source
[4] = target: T4, Spy wild type (Spy_(1-138)); test: as above; remark: listed apart in the source
Spy_(29-138) [5] = target: B6; test: as above; remark: listed apart in the source
[6] = target: T4, Spy wild type (Spy_(1-138)); test: as above; remark: listed apart in the source
Spy_(29-124) [7] = target: T5, Spy_(29-124) (UniProt P77754 52-147); test: NMR titration; 0.1 mM [15N]-Spy_(29-124) with unlabeled peptide at molar ratios 1:2 to 1:40; 2D 1H-15N HSQC; 40 mM HEPES-NaOH, 150 mM NaCl, pH 7.5, 25 °C; one-site binding model
T5 construct: structured region of Spy, both disordered termini deleted; residue n is n+23 in P77754; Isotope-labelled ([15N], [13C,15N] or [2H,13C,15N]) in the NMR experiments; source: E. coli BL21 (DE3), purified (Ni-NTA, cation exchange, SEC); not shown: His6-SUMO, N-terminal, cleaved
T5 sequence (looked up): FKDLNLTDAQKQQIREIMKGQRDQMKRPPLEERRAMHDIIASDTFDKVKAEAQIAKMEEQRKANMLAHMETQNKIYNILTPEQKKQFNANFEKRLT

[8] = target: B7; test: BLI; Octet RED96; client biotinylated and loaded on streptavidin sensors; Spy or Spy variant in solution at 0.25, 0.5, 1, 1.5 and 2 μM; 40 mM HEPES, 150 mM NaCl, pH 7.5; Kd calculated as koff/kon
[9] = target: B7; test: as above; remark: listed apart in the source
[10] = target: B7; test: as above; remark: listed apart in the source
Spy_(29-124) [11] = target: T6, Spy_(29-124) (Escherichia coli K-12 substr. MG1655, UniProt P77754 52-147); test: NMR titration; 0.1 mM [15N]-Spy29-124 titrated with unlabeled peptide at Spy29-124:peptide 1:2 to 1:40; 1H-15N HSQC, 40 mM HEPES-NaOH, 150 mM NaCl, pH 7.5, 25 °C; global one-site fit of the CSPs of M64, H65, D66, I67, A69, K113, N116, A117, K121; saturation not reached, Kd only an estimate
T6 construct: [15N]-labeled in the NMR titrations; also called termini-free Spy; source: E. coli BL21 (DE3), purified (Ni-NTA, cation exchange, SEC); not shown: His6, N-terminal, cleaved; SUMO, N-terminal, cleaved
T6 sequence (looked up): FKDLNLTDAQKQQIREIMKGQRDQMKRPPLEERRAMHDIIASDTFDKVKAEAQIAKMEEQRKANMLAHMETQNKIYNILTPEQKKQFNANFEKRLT

B1: Spy_(21-130) (domain or fragment, UniProt P77754 44-153, looked up)
chain: FGPHQDMMFKDLNLTDAQKQQIREIMKGQRDQMKRPPLEERRAMHDIIASDTFDKVKAEAQIAKMEEQRKANMLAHMETQNKIYNILTPEQKKQFNANFEKRLTERPAAK
notes: previously characterized truncation mutant of Spy; residue n is n+23 in P77754; source: E. coli BL21 (DE3), purified (Ni-NTA, cation exchange, SEC); not shown: His6-SUMO, N-terminal, cleaved
Im7 H40W L53A I54A
  fold increase in koff (against Spy wild type): ~2 fold

B2: Im7 H40W L53A I54A (natural protein)
chain: MELKNSISDYTEAEFVQLLKEIEKENVAATDDVLDVLLEWFVKITEHPDGTDAAYYPSDNRDDSPEGIVKEIKEWRAANGKPGFKQG
modifications: biotin (EZ-link NHS-biotin, 1:1 molar ratio of biotin to protein)
notes: Im7, colicin E7 immunity protein (gene ceiE7), partially folded mutant H40W L53A I54A; The methods say only that Im7 variants were purified by a similar procedure to Spy (His6-SUMO tag removed); also called Im7AAW; biotin-labeled Im7AAW; source: purified by a similar procedure to Spy
Spy wild type
  Kd: 0.64 µM
  koff: 0.178 s⁻¹
  kon: 276000 M⁻¹ s⁻¹
Spy (GGGS)2
  Kd: 0.53 µM
  koff: 0.123 s⁻¹
  kon: 234000 M⁻¹ s⁻¹

B3: Im7 wild type (natural protein)
chain: MELKNSISDYTEAEFVQLLKEIEKENVAATDDVLDVLLEHFVKITEHPDGTDLIYYPSDNRDDSPEGIVKEIKEWRAANGKPGFKQG
modifications: biotin (EZ-link NHS-biotin, 1:1 molar ratio of biotin to protein)
notes: Im7 (colicin E7 immunity protein), wild type; also called Im7 WT; Im7WT; source: purified by a similar procedure to Spy
Spy_(29-138) [1]
  koff: 0.048 s⁻¹
[2]
  koff: 0.114 s⁻¹
Spy_(29-138) [3]
  kon: 178000 M⁻¹ s⁻¹
[4]
  kon: 244000 M⁻¹ s⁻¹
Spy_(29-138) [5]
  Kd: 0.27 µM
[6]
  Kd: 0.47 µM

B4: Im7 L18A L19A L37A (natural protein)
chain: MELKNSISDYTEAEFVQAAKEIEKENVAATDDVLDVALEHFVKITEHPDGTDLIYYPSDNRDDSPEGIVKEIKEWRAANGKPGFKQG
modifications: biotin (EZ-link NHS-biotin, 1:1 molar ratio of biotin to protein)
notes: Im7 (colicin E7 immunity protein) with L18A L19A L37A; also called Im7A3; unfolded client; source: purified by a similar procedure to Spy
Spy_(29-138) [1]
  koff: 0.087 s⁻¹
[2]
  koff: 0.199 s⁻¹
Spy_(29-138) [3]
  kon: 254000 M⁻¹ s⁻¹
[4]
  kon: 299000 M⁻¹ s⁻¹
Spy_(29-138) [5]
  Kd: 0.34 µM
[6]
  Kd: 0.67 µM

B5: Nt-pep (peptide, UniProt P77754 24-51, looked up)
peptide: ADTTTAAPADAKPMMHHKGKFGPHQDMM
notes: disordered N terminus of Spy as a free peptide; residue n is n+23 in P77754; also called peptide corresponding to Spy residues 1-28
Spy_(29-124) [7]
  Kd: 4700 µM

## B6
[8]
  koff: 0.0584 s⁻¹
[9]
  kon: 145000 M⁻¹ s⁻¹
[10]
  Kd: 0.4 µM

## B7
[2]
  koff: 0.726 s⁻¹
[4]
  kon: 216000 M⁻¹ s⁻¹
[6]
  Kd: 3.36 µM

B8: Nt-pep (peptide)
peptide: ADTTTAAPADAKPMMHHKGKFGPHQDMM
notes: Unlabeled peptide; also called Nt-pep WT; peptide corresponding to Spy residues 1-28
Spy_(29-124) [11]
  Kd: 4740 ± 160 µM

## ADTTTAAPADAKPMMHHKGKFGPHQRMM (peptide, UniProt P77754 24-51, looked up, Spy of E. coli, residues 1-28 with D26R) [Nt-pep D26R]
Spy_(29-124) [11]
  Kd: 7040 ± 280 µM

## ADTTTAAPADAKPMMHHKGKFGPHQKMM (peptide, UniProt P77754 24-51, looked up, Spy of E. coli, residues 1-28 with D26K) [Nt-pep D26K]
Spy_(29-124) [11]
  Kd: 6330 ± 250 µM
